Laboratory results as given in article PMC9482650, “Quantitative fragmentomics allow affinity mapping of interactomes” (Nature Communications, 2022).

Experiments:
Assay in all cases: holdup assay
Set-up in all cases: key: below the threshold = too weak to quantify, mostly under pKd 3.1 to 4
Details in all cases: plain residues with an end cap or a label only (N-terminal biotin on a linker: ado-ado)
APBA1_1, Q02410 = target: T1, APBA1_1, Q02410
T1 sequence (Q02410 651-752, limits assumed, looked up): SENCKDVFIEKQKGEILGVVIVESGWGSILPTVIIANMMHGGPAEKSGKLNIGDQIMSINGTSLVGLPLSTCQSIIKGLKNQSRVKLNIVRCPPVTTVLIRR

ARHGAP21, Q5T5U3 = target: T2, ARHGAP21, Q5T5U3
T2 sequence (Q5T5U3 45-169, limits assumed, looked up): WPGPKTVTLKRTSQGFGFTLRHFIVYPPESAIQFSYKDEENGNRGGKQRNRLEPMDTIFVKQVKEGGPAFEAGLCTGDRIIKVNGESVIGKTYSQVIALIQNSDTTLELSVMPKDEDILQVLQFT

ARHGEF12, Q9NZN5-2 = target: ARHGEF12, Q9NZN5-2
Chain of ARHGEF12, Q9NZN5-2 (Q9NZN5 other isoform, or with tags, fused parts or gaps): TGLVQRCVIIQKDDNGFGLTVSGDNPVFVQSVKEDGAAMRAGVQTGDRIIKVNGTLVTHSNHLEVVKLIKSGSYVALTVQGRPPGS

DFNB31_1, Q9P202 = target: T3, DFNB31_1, Q9P202
T3 sequence (Q9P202 135-233, limits assumed, looked up): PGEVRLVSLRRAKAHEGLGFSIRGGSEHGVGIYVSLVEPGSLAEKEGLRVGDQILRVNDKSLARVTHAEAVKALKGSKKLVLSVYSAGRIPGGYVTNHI

DLG1_1, Q12959 = target: DLG1_1, Q12959
DLG3_1, Q92796 = target: T4, DLG3_1, Q92796
T4 sequence (Q92796 125-227, limits assumed, looked up): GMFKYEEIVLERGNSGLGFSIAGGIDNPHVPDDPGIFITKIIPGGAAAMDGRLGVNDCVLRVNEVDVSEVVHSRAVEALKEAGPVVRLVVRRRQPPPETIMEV

DLG3_3, Q92796 = target: T5, DLG3_3, Q92796
T5 sequence (Q92796 374-475, limits assumed, looked up): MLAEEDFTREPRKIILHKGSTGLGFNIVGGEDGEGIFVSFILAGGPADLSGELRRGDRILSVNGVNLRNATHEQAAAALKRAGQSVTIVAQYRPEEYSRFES

GORASP1, Q9BQQ3 = target: GORASP1, Q9BQQ3
Chain of GORASP1, Q9BQQ3 (Q9BQQ3 1-208): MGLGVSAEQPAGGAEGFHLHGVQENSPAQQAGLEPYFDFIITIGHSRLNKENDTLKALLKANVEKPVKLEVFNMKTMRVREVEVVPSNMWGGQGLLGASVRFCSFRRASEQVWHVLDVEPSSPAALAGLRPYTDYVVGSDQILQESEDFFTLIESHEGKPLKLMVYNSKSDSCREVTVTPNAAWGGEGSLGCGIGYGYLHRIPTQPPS

GORASP2, Q9H8Y8 = target: GORASP2, Q9H8Y8
HTRA3, P83110 = target: T6, HTRA3, P83110
T6 sequence (P83110 354-453, limits assumed, looked up): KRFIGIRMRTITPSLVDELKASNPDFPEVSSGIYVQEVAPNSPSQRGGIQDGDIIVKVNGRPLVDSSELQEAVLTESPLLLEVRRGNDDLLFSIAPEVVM

HTRA4, P83105 = target: T7, HTRA4, P83105
T7 sequence (P83105 378-476, limits assumed, looked up): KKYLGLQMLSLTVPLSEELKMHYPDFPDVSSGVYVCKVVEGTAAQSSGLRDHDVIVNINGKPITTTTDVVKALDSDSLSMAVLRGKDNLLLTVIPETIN

LIMK2, P53671 = target: LIMK2, P53671
Chain of LIMK2, P53671 (P53671 143-248): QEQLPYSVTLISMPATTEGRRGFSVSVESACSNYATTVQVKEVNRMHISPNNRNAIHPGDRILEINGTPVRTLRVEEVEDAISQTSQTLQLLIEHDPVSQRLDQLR

LNX1_1, Q8TBB1 = target: LNX1_1, Q8TBB1
Chain of LNX1_1, Q8TBB1 (Q8TBB1 261-371): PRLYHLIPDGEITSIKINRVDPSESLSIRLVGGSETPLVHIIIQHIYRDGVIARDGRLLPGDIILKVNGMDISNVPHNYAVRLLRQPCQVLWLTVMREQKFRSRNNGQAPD

LNX1_3, Q8TBB1 = target: LNX1_3, Q8TBB1
Chain of LNX1_3, Q8TBB1 (Q8TBB1 500-596): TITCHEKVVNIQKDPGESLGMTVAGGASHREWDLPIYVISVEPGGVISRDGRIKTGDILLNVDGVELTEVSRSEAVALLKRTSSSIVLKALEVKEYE

MAGI1_1, Q96QZ7 = target: MAGI1_1, Q96QZ7
Chain of MAGI1_1, Q96QZ7 (Q96QZ7 1-106): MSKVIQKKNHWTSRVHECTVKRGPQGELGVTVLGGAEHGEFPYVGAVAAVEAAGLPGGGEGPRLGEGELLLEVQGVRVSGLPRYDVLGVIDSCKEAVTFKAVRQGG

MAGI2_6, Q86UL8 = target: MAGI2_6, Q86UL8
Chain of MAGI2_6, Q86UL8 (Q86UL8 1141-1229): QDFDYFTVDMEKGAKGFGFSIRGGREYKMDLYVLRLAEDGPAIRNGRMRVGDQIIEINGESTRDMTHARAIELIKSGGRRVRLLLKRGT

MPDZ_5, O75970 = target: T8, MPDZ_5, O75970
T8 sequence (O75970 695-796, limits assumed, looked up): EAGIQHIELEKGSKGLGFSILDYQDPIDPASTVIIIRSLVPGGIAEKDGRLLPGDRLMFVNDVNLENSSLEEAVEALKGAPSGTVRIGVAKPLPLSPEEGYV

MPP6, Q9NZW5 = target: T9, MPP6, Q9NZW5
T9 sequence (Q9NZW5 125-219, limits assumed, looked up): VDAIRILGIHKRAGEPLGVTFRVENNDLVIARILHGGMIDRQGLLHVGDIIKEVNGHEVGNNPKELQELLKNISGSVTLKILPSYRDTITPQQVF

NHERF3_3, Q5T2W1 = target: T10, NHERF3_3, Q5T2W1
T10 sequence (Q5T2W1 238-333, limits assumed, looked up): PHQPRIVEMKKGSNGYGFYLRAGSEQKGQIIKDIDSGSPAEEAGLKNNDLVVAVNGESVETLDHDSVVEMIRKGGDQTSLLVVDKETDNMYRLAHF

PCLO, Q9Y6V0 = target: T11, PCLO, Q9Y6V0
T11 sequence (Q9Y6V0 4491-4600, limits assumed, looked up): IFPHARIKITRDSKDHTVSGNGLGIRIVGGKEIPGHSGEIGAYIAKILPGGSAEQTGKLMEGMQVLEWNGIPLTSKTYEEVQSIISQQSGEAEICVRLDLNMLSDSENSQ

PDZRN4_1, Q6ZMN7 = target: PDZRN4_1, Q6ZMN7
Chain of PDZRN4_1, Q6ZMN7 (Q6ZMN7 213-318): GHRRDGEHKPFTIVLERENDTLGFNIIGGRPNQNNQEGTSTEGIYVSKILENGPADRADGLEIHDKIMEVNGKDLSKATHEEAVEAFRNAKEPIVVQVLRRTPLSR

PTPN3, P26045 = target: PTPN3, P26045
Chain of PTPN3, P26045 (P26045 505-587): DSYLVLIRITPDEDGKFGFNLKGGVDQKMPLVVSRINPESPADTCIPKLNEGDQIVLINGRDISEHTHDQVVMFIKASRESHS

RHPN1, Q8TCX5 = target: T12, RHPN1, Q8TCX5
T12 sequence (Q8TCX5 508-602, limits assumed, looked up): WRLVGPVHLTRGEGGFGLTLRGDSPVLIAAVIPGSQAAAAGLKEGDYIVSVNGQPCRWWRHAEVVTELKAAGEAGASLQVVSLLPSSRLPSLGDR

TJP3_3, O95049 = target: T13, TJP3_3, O95049
T13 sequence (O95049 375-456, limits assumed, looked up): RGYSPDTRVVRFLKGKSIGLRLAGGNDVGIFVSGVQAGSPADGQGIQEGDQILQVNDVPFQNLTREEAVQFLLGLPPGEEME

Q: What does the source list for MQHQRTHTRV [ZSCAN30, Q86W11]?
A: pKd (APBA1_1, Q02410): below the threshold; pKd (ARHGAP21, Q5T5U3): 3.92; pKd (ARHGEF12, Q9NZN5-2): 3.96; pKd (DFNB31_1, Q9P202): 3.81; pKd (DLG1_1, Q12959): 4.41; pKd (DLG3_1, Q92796): 4.03; pKd (DLG3_3, Q92796): 4.3; pKd (GORASP1, Q9BQQ3): 4.1; pKd (GORASP2, Q9H8Y8): 4.38; pKd (HTRA3, P83110): below the threshold; pKd (HTRA4, P83105): below the threshold; pKd (LIMK2, P53671): below the threshold; pKd (LNX1_1, Q8TBB1): 3.49; pKd (LNX1_3, Q8TBB1): 3.53; pKd (MAGI1_1, Q96QZ7): below the threshold; pKd (MAGI2_6, Q86UL8): below the threshold; pKd (MPDZ_5, O75970): below the threshold; pKd (MPP6, Q9NZW5): below the threshold; pKd (NHERF3_3, Q5T2W1): 3.64; pKd (PCLO, Q9Y6V0): below the threshold; pKd (PDZRN4_1, Q6ZMN7): below the threshold; pKd (PTPN3, P26045): below the threshold; pKd (RHPN1, Q8TCX5): 3.72; pKd (TJP3_3, O95049): below the threshold

Q: For AQRARSPSDV [GPR12, P47775], which pKd (APBA1_1, Q02410) is on record?
A: below the threshold

Q: And the pKd (ARHGAP21, Q5T5U3)?
A: below the threshold

Q: What about the pKd (ARHGEF12, Q9NZN5-2) of the same binder?
A: below the threshold

Q: And the pKd (DFNB31_1, Q9P202)?
A: below the threshold

Q: And the pKd (DLG1_1, Q12959)?
A: below the threshold

Q: What about the pKd (DLG3_1, Q92796) of the same binder?
A: below the threshold

Q: What about the pKd (DLG3_3, Q92796) of the same binder?
A: below the threshold

Q: What about the pKd (GORASP1, Q9BQQ3) of the same binder?
A: below the threshold

Q: What about the pKd (GORASP2, Q9H8Y8) of the same binder?
A: below the threshold

Q: And the pKd (HTRA3, P83110)?
A: below the threshold

Q: And the pKd (HTRA4, P83105)?
A: below the threshold

Q: What about the pKd (LIMK2, P53671) of the same binder?
A: below the threshold

Q: And the pKd (LNX1_1, Q8TBB1)?
A: 3.79

Q: What about the pKd (LNX1_3, Q8TBB1) of the same binder?
A: below the threshold

Q: And the pKd (MAGI1_1, Q96QZ7)?
A: 3.67

Q: And the pKd (MAGI2_6, Q86UL8)?
A: below the threshold

Q: What about the pKd (MPDZ_5, O75970) of the same binder?
A: below the threshold

Q: And the pKd (MPP6, Q9NZW5)?
A: below the threshold

Q: What about the pKd (NHERF3_3, Q5T2W1) of the same binder?
A: below the threshold

Q: And the pKd (PCLO, Q9Y6V0)?
A: below the threshold

Q: And the pKd (PDZRN4_1, Q6ZMN7)?
A: below the threshold

Q: What about the pKd (PTPN3, P26045) of the same binder?
A: 3.98

Q: And the pKd (RHPN1, Q8TCX5)?
A: below the threshold

Q: And the pKd (TJP3_3, O95049)?
A: below the threshold

Q: With RQKEVRESKC [SCN8A, Q9UQD0] as the binder, how does the pKd (APBA1_1, Q02410) read?
A: below the threshold

Q: And the pKd (ARHGAP21, Q5T5U3)?
A: below the threshold

Q: And the pKd (ARHGEF12, Q9NZN5-2)?
A: 3.64

Q: And the pKd (DFNB31_1, Q9P202)?
A: 4.1

Q: What about the pKd (DLG1_1, Q12959) of the same binder?
A: below the threshold

Q: What about the pKd (DLG3_1, Q92796) of the same binder?
A: below the threshold

Q: And the pKd (DLG3_3, Q92796)?
A: 3.58

Q: And the pKd (GORASP1, Q9BQQ3)?
A: below the threshold

Q: And the pKd (GORASP2, Q9H8Y8)?
A: below the threshold

Q: And the pKd (HTRA3, P83110)?
A: 3.5

Q: What about the pKd (HTRA4, P83105) of the same binder?
A: below the threshold

Q: And the pKd (LIMK2, P53671)?
A: below the threshold

Q: What about the pKd (LNX1_1, Q8TBB1) of the same binder?
A: below the threshold

Q: And the pKd (LNX1_3, Q8TBB1)?
A: below the threshold

Q: And the pKd (MAGI1_1, Q96QZ7)?
A: below the threshold

Q: And the pKd (MAGI2_6, Q86UL8)?
A: below the threshold

Q: What about the pKd (MPDZ_5, O75970) of the same binder?
A: below the threshold

Q: And the pKd (MPP6, Q9NZW5)?
A: below the threshold

Q: What about the pKd (NHERF3_3, Q5T2W1) of the same binder?
A: below the threshold

Q: And the pKd (PCLO, Q9Y6V0)?
A: below the threshold

Q: What about the pKd (PDZRN4_1, Q6ZMN7) of the same binder?
A: below the threshold

Q: And the pKd (PTPN3, P26045)?
A: 4.6

Q: What about the pKd (RHPN1, Q8TCX5) of the same binder?
A: below the threshold

Q: What about the pKd (TJP3_3, O95049) of the same binder?
A: below the threshold
